This assay has as its target T1, GST-CCA1 (Arabidopsis thaliana, UniProt P92973 1-608).
T1 construct: Immobilized on glutathione-agarose beads; also called pGEX-CCA1 product; not shown: glutathione-S-transferase (GST) of pGEX-3X (Pharmacia)
The assay can be described thus: GST pull-down of 35S-labeled in vitro translated protein, SDS-PAGE autoradiography. As to the method:
CK2 subunits and GBF4 labeled with [^35S]methionine were synthesized by coupled transcription-translation with wheat germ extract (Promega TNT). For in vitro binding, 20 µl of the reactions were added to 200 µl of binding buffer [20 mM Hepes pH 7.6, 100 mM KCl, 10% glycerol, 5 mM EDTA, 0.02% NP40, 1 mM dithiothreitol (DTT), 5 mg/ml bovine serum albumin (BSA)] followed by 10 µl of glutathione-agarose beads with bound GST or GST-CCA1 and incubated at 4° C. The beads were washed with binding buffer, then with binding buffer without BSA. Bound proteins were eluted with 1X SDS-polyacrylamide gel electrophoresis (PAGE) sample buffer and resolved by 12.5% SDS-PAGE. ^35S-labeled bands were detected by autoradiography, and quantitation was performed with a PhosphorImager (Molecular Dynamics).

T1 sequence (P92973 whole entry): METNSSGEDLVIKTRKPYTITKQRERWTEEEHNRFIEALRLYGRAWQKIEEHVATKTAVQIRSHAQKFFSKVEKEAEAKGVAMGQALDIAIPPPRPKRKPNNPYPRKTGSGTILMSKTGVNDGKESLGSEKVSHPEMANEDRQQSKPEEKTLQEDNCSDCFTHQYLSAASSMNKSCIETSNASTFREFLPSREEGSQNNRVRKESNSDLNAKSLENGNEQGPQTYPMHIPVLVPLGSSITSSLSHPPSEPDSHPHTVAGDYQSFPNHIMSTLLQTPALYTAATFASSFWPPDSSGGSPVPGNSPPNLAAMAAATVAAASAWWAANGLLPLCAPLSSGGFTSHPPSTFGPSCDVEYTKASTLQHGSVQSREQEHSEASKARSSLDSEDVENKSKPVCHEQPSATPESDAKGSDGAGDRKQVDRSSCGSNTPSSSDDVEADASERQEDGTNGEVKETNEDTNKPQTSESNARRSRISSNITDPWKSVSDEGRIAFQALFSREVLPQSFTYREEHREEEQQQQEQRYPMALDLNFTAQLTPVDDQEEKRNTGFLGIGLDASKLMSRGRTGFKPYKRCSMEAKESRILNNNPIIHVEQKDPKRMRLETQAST

B1: GBF4, a bZIP transcription factor (35S-labeled, in vitro translated) (other, UniProt P42777 1-270, looked up)
chain: MASFKLMSSSNSDLSRRNSSSASSSPSIRSSHHLRPNPHADHSRISFAYGGGVNDYTFASDSKPFEMAIDVDRSIGDRNSVNNGKSVDDVWKEIVSGEQKTIMMKEEEPEDIMTLEDFLAKAEMDEGASDEIDVKIPTERLNNDGSYTFDFPMQRHSSFQMVEGSMGGGVTRGKRGRVMMEAMDKAAAQRQKRMIKNRESAARSRERKQAYQVELETLAAKLEEENEQLLKEIEESTKERYKKLMEVLIPVDEKPRPPSRPLSRSHSLEW
modifications: [35S]methionine label
notes: Negative control
As for B1, the binding result is “no binding”.

Source of the values: patent publication US6727407 (University of California, dated 2004).
